Here are results for two molecules from patent US20140128287, “SYSTEMS FOR INDUCTION OF GENE EXPRESSION AND PROTEIN DEPLETION IN YEAST” (THE TRUSTEES OF PRINCETON UNIVERSITY, published 2014).

Series [1] deals with 4ZEV (designed four zinc finger - estrogen receptor - VP16 activator) (synthetic construct). As to the kind of experiment: cell_activity; yeast reporter, modified GAL1 promoter, 15 min after beta-estradiol. As to conditions: tags: 4Z DBD replaces Gal4 DBD of GEV.
Series [2] deals with ZEV (Zif268 zinc fingers - estrogen receptor - VP16 activator) (synthetic construct, UniProt P18146 SEQ:1-87). Described as above.

B1: 4Z in vivo target (three pairs of sites) (dsDNA)
DNA 1: GCGGCGGAGGAGTGCGGCGGAGGAGGAGCGGCGGAGGAGTGCGGCGGAGGAGGAGCGGCGGAGGAGTGCGGCGGAGGAG
DNA 2: CTCCTCCGCCGCACTCCTCCGCCGCTCCTCCTCCGCCGCACTCCTCCGCCGCTCCTCCTCCGCCGCACTCCTCCGCCGC
On to B1, for which the activity in series [1] is > 50 fold induction of GFP transcripts.

B2: Zif in vivo target (three pairs of sites) (dsDNA)
DNA 1: GCGTGGGCGTGCGTGGGCGGGCGTGGGCGTGCGTGGGCGGGCGTGGGCGTGCGTGGGCG
DNA 2: CGCCCACGCACGCCCACGCCCGCCCACGCACGCCCACGCCCGCCCACGCACGCCCACGC
Regarding B2, the activity in series [2] is > 50 fold induction of GFP transcripts.
